From publication PMC8910226

Biological target: F-actin (phalloidin-stabilized) (UniProt P68139)
Assay: co-sedimentation; S1 fixed at 1.5 μM, phalloidin-stabilized F-actin 0-4 μM; rigor conditions (no nucleotide); 100 mM NaCl, 200 mM sodium phosphate pH 7, 5 mM MgCl2, 4 mM DTT; 15 min at 4 °C, 70,000 RPM 60 min 4 °C; SDS-PAGE densitometry of pellet, hyperbolic fit; Kd = F-actin concentration at half Bmax; N = 3

| Substance | Kd [µM] |
| --- | --- |
| R369H myosin subfragment-1 (S1) motor domain, Drosophila indirect flight muscle myosin (domain or fragment) | 1.1 |
| control myosin subfragment-1 (S1) motor domain, Drosophila indirect flight muscle myosin (domain or fragment) | 1.26 |
